{"source": "patent US8916149B2", "about": "“Preventing and treating sepsis” (University of Rochester, priority 2008, dated 2014)", "molecules": {"B1": {"name": "rhAPC: Recombinant human activated protein C obtained from Eli Lilly; FDA-approved drug for severe sepsis (protein)", "chain 1": "ANSFLEELRHSSLERECIEEICDFEEAKEIFQNVDDTLAFWSKHVDGDQCLVLPLEHPCASLCCGHGTCIDGIGSFSCDCRSGWEGRFCQREVSFLNCSLDNGGCTHYCLEEVGWRRCSCAPGYKLGDDLLQCHPAVKFPCGRPWKRMEKKRSHL", "chain 2": "LIDGKMTRRGDSPWQVVLLDSKKKLACGAVLIHPSWVLTAAHCMDESKKLLVRLGEYDLRRWEKWELDLDIKEVFVHPNYSKSTTDNDIALLHLAQPATLSQTIVPICLPDSGLAERELNQAGQETLVTGWGYHSSREKEAKRNRTFVLNFIKIPVVPHNECSEVMSNMVSENMLCAGILGDRQDACEGDSGGPMVASFHGTWFLVGLVSWGEGCGLLHNYGVYTKVSRYLDWIHGHIRDKEAPQKSWAP"}}, "key": {"LPS treated mice": {"test_system": "LPS treated mice", "test": "Neutrophil recruitment into airspace (BALF) after intranasal LPS", "assay_type": "in vivo, mice (C57BL/6)", "conditions": "10 μg/mouse i.v. 2 hours after LPS", "protocol": "Mice (C57BL/6, 6-8 weeks) were anesthetized with avertin and then intranasally administered 30 μg of LPS (Sigma-Aldrich, St. Louis, Mo.). […] Mice were sacrificed 4 hours later and bronchioalveolar lavage was harvested. Cells were fixed with 4% formaldehyde for 20 minutes. Cells were counted using microbeads (Polyscience, Niles, Ill.) by flow cytometry. Cells were stained with Gr-1 APC antibody (eBioscience, San Diego, Calif.) and collected by flow cytometry. Data were analyzed using FlowJo software (Tree Star, Ashland, Oreg.)."}, "α5β1": {"biological_target": "T1, α5β1 (Homo sapiens, UniProt P05556+P08648)", "T1 construct": "purchased US Biological, Swampscott, Mass", "T1 sequence (P08648 42-894 limits assumed)": "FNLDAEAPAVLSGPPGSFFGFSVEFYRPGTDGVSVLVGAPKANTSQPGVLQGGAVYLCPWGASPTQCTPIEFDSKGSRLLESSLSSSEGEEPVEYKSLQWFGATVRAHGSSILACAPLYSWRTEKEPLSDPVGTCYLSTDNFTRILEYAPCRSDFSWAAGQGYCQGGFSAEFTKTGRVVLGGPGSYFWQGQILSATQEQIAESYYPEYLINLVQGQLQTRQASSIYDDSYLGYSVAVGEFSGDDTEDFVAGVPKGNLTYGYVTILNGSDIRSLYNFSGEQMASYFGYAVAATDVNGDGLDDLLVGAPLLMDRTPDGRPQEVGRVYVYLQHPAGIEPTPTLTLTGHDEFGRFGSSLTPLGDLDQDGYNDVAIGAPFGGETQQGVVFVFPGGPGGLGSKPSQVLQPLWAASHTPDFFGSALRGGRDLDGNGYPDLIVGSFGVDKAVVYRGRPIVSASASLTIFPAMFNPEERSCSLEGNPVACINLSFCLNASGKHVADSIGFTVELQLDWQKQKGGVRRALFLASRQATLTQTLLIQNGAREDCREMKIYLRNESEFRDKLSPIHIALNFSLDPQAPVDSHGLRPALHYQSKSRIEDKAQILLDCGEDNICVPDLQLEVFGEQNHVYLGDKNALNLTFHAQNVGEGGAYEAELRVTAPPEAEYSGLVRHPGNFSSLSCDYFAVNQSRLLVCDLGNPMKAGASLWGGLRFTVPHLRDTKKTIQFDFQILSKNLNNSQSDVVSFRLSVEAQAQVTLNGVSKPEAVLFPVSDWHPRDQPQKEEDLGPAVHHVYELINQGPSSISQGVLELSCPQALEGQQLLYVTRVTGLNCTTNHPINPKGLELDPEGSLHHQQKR", "T1 sequence (P08648 895-1049 partner limits assumed)": "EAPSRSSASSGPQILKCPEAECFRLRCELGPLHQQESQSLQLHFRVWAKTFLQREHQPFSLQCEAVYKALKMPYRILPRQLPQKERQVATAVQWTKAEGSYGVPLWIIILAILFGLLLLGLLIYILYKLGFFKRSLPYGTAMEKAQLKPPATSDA", "T1 sequence (P05556 21-798)": "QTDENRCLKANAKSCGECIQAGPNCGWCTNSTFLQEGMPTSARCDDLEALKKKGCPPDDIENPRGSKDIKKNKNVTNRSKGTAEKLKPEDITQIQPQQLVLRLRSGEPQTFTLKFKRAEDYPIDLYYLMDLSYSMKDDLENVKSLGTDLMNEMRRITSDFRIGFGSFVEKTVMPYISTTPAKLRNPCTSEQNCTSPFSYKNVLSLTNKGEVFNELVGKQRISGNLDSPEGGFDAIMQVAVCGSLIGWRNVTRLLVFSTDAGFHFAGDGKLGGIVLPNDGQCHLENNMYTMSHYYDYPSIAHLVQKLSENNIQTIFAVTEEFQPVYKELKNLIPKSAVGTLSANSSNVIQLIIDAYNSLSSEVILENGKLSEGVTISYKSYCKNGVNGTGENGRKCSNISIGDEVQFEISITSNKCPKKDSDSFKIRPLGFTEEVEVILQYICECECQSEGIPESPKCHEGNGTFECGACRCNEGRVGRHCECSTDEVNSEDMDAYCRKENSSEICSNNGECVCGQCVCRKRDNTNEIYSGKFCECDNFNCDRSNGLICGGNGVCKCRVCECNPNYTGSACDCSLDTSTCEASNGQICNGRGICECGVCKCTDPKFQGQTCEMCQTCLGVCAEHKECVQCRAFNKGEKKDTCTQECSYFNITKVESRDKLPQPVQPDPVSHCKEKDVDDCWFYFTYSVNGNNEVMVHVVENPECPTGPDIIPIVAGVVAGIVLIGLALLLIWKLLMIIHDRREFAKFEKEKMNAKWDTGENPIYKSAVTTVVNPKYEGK", "test": "Solid phase integrin ligand binding assay", "conditions": "1 mM Mn2+, 1 mM Ca2+, 1 mM Mg2+", "protocol": "(§1) The solid phase binding assay was performed using purified soluble human α3β1, α5β1, and αVβ3 (US Biological, Swampscott, Mass.). Two (2) μg/ml of soluble integrins were added to microtiter wells for capture with immobilized monoclonal antibody against β1 or β3 subunits (mAb TS2/6 for β1 and mAb BB10 (Chemicon, Temecula, Calif.) for β3 integrins). […] After washing, bound APC was chromogenically detected by peroxidase-streptavidin conjugate anti-PC (Diapharma, West Chester, Ohio) or chromogenic substrate S-2366 (Diapharma, West Chester, Ohio). To minimize dissociation, all wash buffers contained 1 mM Mn^2+, and <15 minutes elapsed between the end of binding and beginning of color development. Functional blocking antibodies for integrins were from Chemicon (Temecula, Calif.).\n(§2) Among the neutrophil integrins that recognize the RGD motif, α3β1, α5β1, and αVβ3 are key in regulating neutrophil chemotaxis (Yauch et al., Mol. Biol. Cell 9:2751 (1998); Burns et al., J. Immunol. 166:4644 (2001); Sixt et al., J. Biol. Chem. 276:18878 (2001)). To test whether APC can bind directly to the integrins, an ELISA-like solid phase receptor-binding assay was performed (FIG. 2E). Soluble α3β1, α5β1, and αVβ3 were captured onto microtiter wells using mAbs specific for β1 or β3."}, "α3β1": {"biological_target": "T2, α3β1 (Homo sapiens, UniProt P05556+P26006)", "T2 construct": "purchased US Biological, Swampscott, Mass", "T2 sequence (P26006 33-872 limits assumed)": "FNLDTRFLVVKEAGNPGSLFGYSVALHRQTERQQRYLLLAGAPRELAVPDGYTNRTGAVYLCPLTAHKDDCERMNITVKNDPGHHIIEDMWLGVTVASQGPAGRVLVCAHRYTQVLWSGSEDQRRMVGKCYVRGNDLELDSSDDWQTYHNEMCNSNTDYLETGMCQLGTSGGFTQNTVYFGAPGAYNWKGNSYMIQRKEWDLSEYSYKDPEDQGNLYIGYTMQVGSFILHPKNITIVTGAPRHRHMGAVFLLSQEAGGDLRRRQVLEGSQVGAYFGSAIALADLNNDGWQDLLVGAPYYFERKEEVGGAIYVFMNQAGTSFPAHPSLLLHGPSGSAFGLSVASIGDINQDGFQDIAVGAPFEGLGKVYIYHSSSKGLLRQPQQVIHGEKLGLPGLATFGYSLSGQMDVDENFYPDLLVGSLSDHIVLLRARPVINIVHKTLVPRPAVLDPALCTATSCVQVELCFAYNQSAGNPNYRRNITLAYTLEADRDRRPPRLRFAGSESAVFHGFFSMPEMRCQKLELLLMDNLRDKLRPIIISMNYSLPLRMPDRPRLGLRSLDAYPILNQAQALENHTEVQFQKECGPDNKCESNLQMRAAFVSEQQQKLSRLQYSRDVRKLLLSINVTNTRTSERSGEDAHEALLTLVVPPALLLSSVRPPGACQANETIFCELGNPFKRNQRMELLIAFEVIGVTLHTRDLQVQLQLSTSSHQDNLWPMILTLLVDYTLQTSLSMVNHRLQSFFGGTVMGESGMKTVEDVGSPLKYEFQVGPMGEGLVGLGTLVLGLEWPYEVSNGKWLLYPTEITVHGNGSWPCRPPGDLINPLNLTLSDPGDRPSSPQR", "T2 sequence (P26006 876-1051 partner limits assumed)": "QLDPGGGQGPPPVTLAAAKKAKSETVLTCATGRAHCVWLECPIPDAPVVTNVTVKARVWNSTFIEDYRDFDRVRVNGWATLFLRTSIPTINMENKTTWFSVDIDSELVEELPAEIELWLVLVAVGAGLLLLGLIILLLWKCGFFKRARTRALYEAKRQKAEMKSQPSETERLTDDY", "T2 sequence (P05556 21-798)": "as the sequence (P05556 21-798) above", "test": "Solid phase integrin ligand binding assay", "conditions": "1 mM Mn2+, 1 mM Ca2+, 1 mM Mg2+", "protocol": "as §1, §2"}, "αVβ3": {"biological_target": "T3, αVβ3 (Homo sapiens, UniProt P05106+P06756)", "T3 construct": "purchased US Biological, Swampscott, Mass", "T3 sequence (P06756 31-889 limits assumed)": "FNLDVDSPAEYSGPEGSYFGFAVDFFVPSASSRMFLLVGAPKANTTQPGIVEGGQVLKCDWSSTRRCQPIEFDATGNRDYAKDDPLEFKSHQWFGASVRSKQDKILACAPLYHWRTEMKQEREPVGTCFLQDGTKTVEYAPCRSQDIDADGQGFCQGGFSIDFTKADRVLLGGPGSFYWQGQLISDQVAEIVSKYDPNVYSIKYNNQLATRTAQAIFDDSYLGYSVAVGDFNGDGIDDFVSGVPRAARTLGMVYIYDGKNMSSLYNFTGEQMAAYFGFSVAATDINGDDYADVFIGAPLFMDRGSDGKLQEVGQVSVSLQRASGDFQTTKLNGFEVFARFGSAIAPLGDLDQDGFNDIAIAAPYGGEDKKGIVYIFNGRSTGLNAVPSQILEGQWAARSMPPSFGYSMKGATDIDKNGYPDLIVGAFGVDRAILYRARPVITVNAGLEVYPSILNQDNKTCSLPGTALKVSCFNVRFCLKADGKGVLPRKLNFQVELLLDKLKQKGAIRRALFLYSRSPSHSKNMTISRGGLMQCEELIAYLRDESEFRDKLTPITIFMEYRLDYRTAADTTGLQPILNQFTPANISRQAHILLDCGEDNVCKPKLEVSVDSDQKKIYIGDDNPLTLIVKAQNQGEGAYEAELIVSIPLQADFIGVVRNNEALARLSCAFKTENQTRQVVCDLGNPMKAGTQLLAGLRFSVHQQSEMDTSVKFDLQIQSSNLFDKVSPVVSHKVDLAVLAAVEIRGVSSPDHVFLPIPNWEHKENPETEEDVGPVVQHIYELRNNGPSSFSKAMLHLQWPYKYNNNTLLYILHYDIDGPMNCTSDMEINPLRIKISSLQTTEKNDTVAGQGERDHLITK", "T3 sequence (P06756 891-1048 partner limits assumed)": "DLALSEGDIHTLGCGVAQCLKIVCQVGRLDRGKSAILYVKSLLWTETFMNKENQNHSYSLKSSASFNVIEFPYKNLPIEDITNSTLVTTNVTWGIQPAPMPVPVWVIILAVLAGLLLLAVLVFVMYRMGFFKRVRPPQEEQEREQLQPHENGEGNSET", "T3 sequence (P05106 27-788)": "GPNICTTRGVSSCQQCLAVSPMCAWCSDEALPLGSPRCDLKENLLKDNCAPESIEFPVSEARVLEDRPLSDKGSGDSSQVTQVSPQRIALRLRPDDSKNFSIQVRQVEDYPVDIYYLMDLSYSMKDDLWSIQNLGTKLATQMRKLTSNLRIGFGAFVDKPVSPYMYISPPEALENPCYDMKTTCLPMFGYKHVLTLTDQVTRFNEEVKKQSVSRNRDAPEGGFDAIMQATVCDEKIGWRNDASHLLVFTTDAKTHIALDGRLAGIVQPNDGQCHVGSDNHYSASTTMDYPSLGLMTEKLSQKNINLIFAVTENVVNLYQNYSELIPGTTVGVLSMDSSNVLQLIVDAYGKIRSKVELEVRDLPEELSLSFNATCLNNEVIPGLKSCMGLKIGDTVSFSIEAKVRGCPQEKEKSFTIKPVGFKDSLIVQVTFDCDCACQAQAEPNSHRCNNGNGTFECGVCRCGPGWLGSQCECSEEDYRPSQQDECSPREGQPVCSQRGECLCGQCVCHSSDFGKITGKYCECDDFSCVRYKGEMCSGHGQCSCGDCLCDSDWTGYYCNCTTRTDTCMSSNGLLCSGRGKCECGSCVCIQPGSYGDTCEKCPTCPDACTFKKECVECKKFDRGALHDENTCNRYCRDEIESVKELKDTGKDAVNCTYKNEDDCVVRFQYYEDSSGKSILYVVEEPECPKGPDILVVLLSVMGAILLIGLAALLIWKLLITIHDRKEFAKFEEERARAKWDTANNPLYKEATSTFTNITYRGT", "test": "Solid phase integrin ligand binding assay", "conditions": "1 mM Mn2+, 1 mM Ca2+, 1 mM Mg2+", "protocol": "as §1, §2"}, "human neutrophils [1]": {"test_system": "human neutrophils", "test": "Random migration of neutrophils on FN-coated cover glass (live-cell imaging)", "assay_type": "cell-based", "protocol": "(§3) Delta T dishes were coated with human FN (50 μg/ml, BD Biosciences, San Jose, Calif.) for overnight at 4° C. and then for 4 h at room temperature. Plates were then rinsed with L-15 media. […] The cells were then added to FN-coated dishes in 1.5 ml of L-15 with 2 mg/ml of glucose. For neutrophil live cell staining, 2 μM Green Cell Tracker CMFDA (5-chloromethylfluorescein diacetate; Molecular Probes, Carlsbad, Calif.) was used. Temperature was maintained at 37° C. throughout the experiment using a FCS2 live-cell imaging chamber (Bioptechs, Butler, Pa.). Images were acquired for 30 to 60 minutes under a 10× objective lens using a Nikon TE-2000U inverted microscope. Phase contrast images were acquired every 5 seconds and fluorescence images every 30 seconds. Cell paths were traced using MetaVue™ imaging software (Molecular Devices Corporation, Downingtown, Pa.).\nRandom migration was investigated by adding fMLP or IL-8 to media at a final concentration of 10^−8M and analyzed by manually tracing the outline of each cell in selected frames (i.e., at 50 second intervals). The x and y coordinates of each cell were measured using ImageJ software and were corrected so that the starting position was x=0 and y=0.\n(§4) The time-lapsed images of migrating neutrophils were taken under phase contrast microscopy. Each image was thresholded and binarized based on brightness to define the centroids of the neutrophils. The closest centroids between consecutive images were linked as a trajectory under the assumption that these centroids were made by the same neutrophil. The maximum distance between the closest centroids was also defined to preclude the artifacts due to cells moving into and out of the field of view."}, "human neutrophils [2]": {"test_system": "human neutrophils", "test": "Neutrophil adhesion assay on immobilized fibronectin (FN)", "assay_type": "cell-based", "conditions": "10 μg/ml protein", "protocol": "The adhesion assay was carried out essentially as described (Vorup-Jensen et al., PNAS 102:1614 (2005)). Cover slips were coated with FN in coating buffer (150 mM NaCl/20 mM Tris.HCl, pH 9.0) for over night at 4° C. and for 4 hours at room temperature. Residual binding sites were blocked by incubation of the wells with 0.05% (wt/vol) polyvinylpyrrolidone in PBS for 30 minutes at room temperature. […] The cover slips were aspirated, and washed with L15 medium. […] Cells (250 μl) were then immediately added, and further incubated at 37° C. for 15 minutes. Unbound cells were then washed with warm L15 medium. The bound cells were then fixed with formaldehyde. For each experimental condition from three independent donors, five random phase-contrast images were obtained, and the number of cells in each well was scored from printed micrographs."}, "human neutrophils [3]": {"test_system": "human neutrophils", "test": "Intracellular Ca2+ measurement (Fluo-4)", "assay_type": "cell-based", "conditions": "10 nM fMLP", "protocol": "1×10^7 cells/ml of human neutrophils were labeled with […] Fluo-4 AM (Molecular Probes, Eugene, Oreg.) at 37° C. for 30 minutes, then at room temperature for an additional 5 to 10 minutes. After washing twice, cells were resuspended to 4×10^6 cells/ml (6 ml) in F15 and incubated at RT for de-esterification. For measurements, cells (4×10^6) were spun down in a microtube (1 ml), resuspend in 1 ml of F15 at 37° C., transferred to a quartz cuvette containing a fluorometric stir bar and 1 ml of the same buffer at 37° C., and fluorescence signals were measured in the fluorometer."}, "neutrophil": {"test_system": "neutrophil", "conditions": "without any protein coatings; cited from earlier work"}, "[4]": {"test_system": "patients with severe sepsis", "conditions": "subset of patients; cited from earlier work"}, "human neutrophils [5]": {"test_system": "human neutrophils", "test": "Micropipette assay (directional migration toward fMLP tip)", "assay_type": "cell-based", "protocol": "as §3\nDirectional migration was investigated using a micropipette assay to analyze the dynamics of neutrophil migration on different integrin ligands. Sterile Femtotips II micropipette tips (Eppendorf, Westbury, N.Y.) were loaded with 5 μl of 1 μM fMLP and then placed on the bottom of FN-coated delta T dishes that had been pre-warmed to 37° C. Image acquisition began within 2 minutes of tip placement.\nas §4"}}, "note": "“Also recorded” adds a separate entry of the source.", "data": [{"molecule": "B1", "values": [{"measurement": "neutrophil recruitment in the BALF", "setting": "LPS treated mice", "result": "significantly reduced"}, {"measurement": "direct binding to soluble α5β1", "setting": "α5β1", "result": "bound"}, {"measurement": "direct binding to soluble α3β1", "setting": "α3β1", "result": "bound"}, {"measurement": "direct binding to soluble αVβ3", "setting": "αVβ3", "result": "bound"}, {"measurement": "random migration of neutrophils on FN induced by fMLP", "setting": "human neutrophils [1]; 10 μg/ml protein, fMLP", "result": "dramatically reduced"}, {"measurement": "neutrophil migration on FN by IL-8", "setting": "human neutrophils [1]; rhAPC pre-treatment, IL-8", "result": "dramatically decreased"}, {"measurement": "fMLP-induced adhesion of human neutrophils to immobilized FN", "setting": "human neutrophils [2]", "result": "significantly reduced; also recorded: abolished"}, {"measurement": "increase in intracellular Ca2+ concentration by fMLP treatment", "setting": "human neutrophils [3]", "result": "had no effect"}, {"measurement": "neutrophil migration through nitrocellulose micropore filter", "setting": "neutrophil", "result": "inhibited"}, {"measurement": "mortality in patients with severe sepsis", "setting": "[4]", "result": "significantly reduced"}, {"measurement": "direction of movement", "setting": "human neutrophils [5]", "result": "without significantly altering"}, {"measurement": "decrease of average lateral migration speed (S)", "setting": "human neutrophils [5]; over 30 neutrophils in each group", "result": "more than 2.5 fold"}, {"measurement": "neutrophil migration on FN toward the fMLP tip", "setting": "human neutrophils [5]; rhAPC pre-treatment", "result": "dramatically decreased"}]}]}
